This assay addresses T1, mouse BCL-XL (mouse, UniProt Q64373 1-233).
T1 construct: whole, on cells; In mitochondria of FL5.12-BCL-XL cells
Briefly: BSOCOES cross-linking in TNFα-treated FL5.12-BCL-XL cells, excised 45 kDa gel section, alkaline reversal, Western blots. As to the method:
FIG. 16a-FL5.12-BCL-XL cells were induced for 5 hours in the presence TNFα/CHX (lanes 3 and 4) or were remained un-induced (lanes 1 and 2), following which mitochondria were prepared from the cells and were treated with the BSOCOES cross-linker (+) (lanes 2 and 4) or remained untreated (−) (lanes 1 and 3). At the end of the incubation, the membranes were lysed and were size-fractionated by SDS-PAGE and immunoblotted using anti-BID Abs. FIGS. 16b-d—The experiment presented in FIG. 16a was repeated and the gel sections corresponding to the position of the 45 kDa band in lanes 3 and 4 (FIG. 16a; marked by boxes) were excised, incubated in alkaline conditions, and later resolved as described in FIGS. 12a-c. Lane 1—excised gel band from lane 3 of the gel presented in FIG. 16a; lane 2—excised gel band from lane 4 of the gel presented in FIG. 16a. […] The asterisk marks cross-reactive substances that might have been released from the gel sections.
To assess whether this band represented a complex between tBID (15 kDa) and BCL-XL (30 kDa), the experiment was repeated and the gel sections corresponding to the position of the 45 kDa band in lanes 3 and 4 (marked by boxes in FIG. 16a) were excised, incubated in alkaline conditions, and later resolved as described in Example 7, hereinabove and in FIGS. 12a-c.
Background: A western blot detects proteins with antibodies after separation by electrophoresis.

T1 sequence (Q64373 whole entry): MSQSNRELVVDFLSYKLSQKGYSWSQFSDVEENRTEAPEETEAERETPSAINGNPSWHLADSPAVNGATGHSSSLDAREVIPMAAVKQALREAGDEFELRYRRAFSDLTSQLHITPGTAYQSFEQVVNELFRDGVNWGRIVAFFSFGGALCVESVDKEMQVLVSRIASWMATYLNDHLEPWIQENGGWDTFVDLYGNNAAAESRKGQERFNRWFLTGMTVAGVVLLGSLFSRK

B1: tBID, endogenous, in TNFα/CHX-treated FL5.12 cells (other)
chain: GSQASRSFNQGRIEPDSESQEEIIHNIARHLAQIGDEMDHNIQPTLVRQLAAQFMNGSLSEEDKRNCLAKALDEVKTAFPRDMENDKAMLIMTMLLAKKVASHAPSLLRDVFHTTVNFINQNLFSYVRNLVRNEMD
notes: FL5.12 is a murine cell line; also called endogenous tBID
Turning to B1, the binding result is on record as “binds”.

Values taken from US20090124564A1 (YEDA RESEARCH AND DEVELOPMENT, published 2009).
